Results: the DeepSol protein solubility set

Test: soluble on expression in E. coli; label from the status in PepcDB or PDB records

| Sequence | soluble on expression in E. coli |
| --- | --- |
| GSCEKENIGIEVTPVNAKFIITPVVIDATTGTDVTQSAEISFSKGNGTYEGTPELASESININAKYKGMTGSASVTIPALKAGQFGAKEVTIILSENFFAQEESSNSQIETTKHSGFKNNTSDYWYYITVTYTKKEGSEVIKNDYEGDDSEIKNIIDAYNKGVREDKVTLNDVQVLAHSRFSVFVDYMKTTSVYQIIEKSPKRDGNPVASFTVDSYNTIVSPKNEQIPGHGHAPSHGHGHGHGDDSNAGGGIIIAD | soluble |
| RRRAKGLRREEVAQLAGISATWLTWLEQGRSESVSAQTLSRLAAALQLSGAETDYLFDLAGLKNPQEKRADANPQAREILEEMLPRIDMPAYVLDRLWRAVAWNRAAEELFC | not soluble |
| MTATPEVQKSIEEVYTKLQGASDCSSLLKKHLTKDVVAKNKSKKTRLGATLLDVIQSGGENLDSGVGIYAPDAESYTLFADLFNPVIEEYHNGFKATDTQPAMDLGEKNVGELADLDPEGKFIVSTRIRCGRSLQGYPFNPCLSETNYKMMETRMKEIFNSITDPELKGTYYPLTGMDEETKKKLIADHFLFKEGDRFLKAANANRYWPNGRGIFHNEKKTFLVWVNEEDHLRIISMQNGGNVGEVLARLIKGLNLVAAKAPFARHPRLGWLTFCPTNLGTTVRASVHIKLPKISAKDDFKKICSDMKLQIRGIHGEHSESKEGIYDISNKQRLGLTEYQAVRQMYDGLKKLIELEKAAA | not soluble |
| MKSEETQPFGITIEGVELSDGDVQFADKSLPLPFSTSIHTLSGEVSTLSSDSSEPARVKFEGEVAEYGLAQVNGTVHAWHPTRQTTINVRFRNLQIPEYSPYTVNFAGRKIADGTMDLDLDYTVNEEKLDGQNNLVLHDLKLGEKMESSDAMDLPLDLAIALLQDSDGLEHHHHHH | soluble |
| MKNASVITVGNEILKGRTVNTNAAFIGNFLTYHGYQVRRGFVVMDDLDEIGWAFRVALEVSDLVVSSGGLGPTFDDMTVEGFAKCIGQDLRIDEDALAMIKKKYGQADLTPQRLKMAKIPPSCRPIENPVGTAPGLICAVGGKKVIILPGVPKEMEALLKAMEKDIIIPDTHYYDDSVIIADVMESAFAPYVDRIMKEFDGIYVKSHPRNVEVKNPELEIEISGFGEDEAALRKKIEDAIARAGEYAVKLGGSVKR | not soluble |
| MGSDKIHHHHHHMKTKETPEQKPEDMPIPIVDITSVEQQTVSLNLPSYGVVTPKYKTQLVTEVQGRMLTISPQFVAGGIVKKGDQLAQIEPSDYEADLMQAEATLAQATAALNEEIARGEVAKIEFKGYDKGLPPELGLRIPQLKKEQANVKYAQAALARAQRNLERTIIRAPFDGIIKARNVDLGQYVTLGTNLGELYDTSIAEIRLPISNDDLAYLESVDNPDTQVTLSASLAGKENTWIGNIIRSEGVIDADNRMVYLVAEIKDPYLREHKTQGSLPLKYGSFVNAVIKGRTVDGIVKLPRHVVRNEHVALINDNNIVEMRHVNVVRSDLQNVFIKDSLKTGERVAITHFNNMANGQLVKVIGEETKPAQTPAPESSLAATGVK | not soluble |
| SDNISLEYFEEAVCYMLQHPQVKGPGIGLLGISLGADICLSMASFLKNVSATVSINGSGISGNTAINYKHSSIPPLGYDLRRIKVAFSGLVDIVDIRNALVGGYKNPSMIPIEKAQGPILLIVGQDDHNWRSELYAQTVSERLQAHGKEKPQIICYPGTGHYIEPPYFPLCPASLHRLLNKHVIWGGEPRAHSKAQEDAWKQILAFFCKHLGGTQKTAVPKL | soluble |
| MGSDKIHHHHHHMSSDVRKALDPGTPYSRTLKQYSIDEKLAIISHAKNHGNRAAGREFNVAESSIREWRKNENKLIHNRDAAAARLNAQSSHSSGPARLNNMNNNNNNNHNHSKNNNIQYTQTVFPRRTPDDIVKHIQIAQITQLAMMKMDFTSLARIAPFLQAHQHQQQAQAKPDSISTASSVVGTPSSISSSSSTPPPSTSPVPTSSGSGRRKPRCPMKIVVAESNNPVNIEEIQENIDE | not soluble |
| MGYLNNVTGYREDLLANRAIVKHGNFALLTPDGLVKNIIPGFENCDATILSTPKLGASFVDYLVTLHQNGGNQQGFGGEGIETFLYVISGNITAKAEGKTFALSEGGYLYCPPGSLMTFVNAQAEDSQIFLYKRRYVPVEGYAPWLVSGNASELERIHYEGMDDVILLDFLPKELGFDMNMHILSFAPGASHGYIETHVQEHGAYILSGQGVYNLDNNWIPVKKGDYIFMGAYSLQAGYGVGRGEAFSYIYSKDCNRDVEILEHHHHHH | not soluble |
| MGSDKIHHHHHHMTRTEHEISFGPYTAVATTRGGALRELRHEGRDLVVGFAADGEIPDYRGVICAPWPNRLAGGRYSFEGKDYQAVVNEEQRGTALHGLVFGAVWELLEHTASSVRLGTRIEPGDGYPGRLDVSVDYELRADGLHSTVRARNVGVEAAPYGACPHPYLIAGPAPLDEWSVQIPATEFMEVSADRLLPEGMAGVEGHAFDFRTEKVLGSVQIDHAFTGLIPNADGLAAVRVHDPSGTGVELEWDATWPWLQIHTADKPSGPTRLGLAVEPMTCPPDAFNSGTDVLRLAPGESHEASWTIRALSR | not soluble |
| MHRRGVGAGAIAKKKLAEAKYKERGTVLAEDQLAQMSKQLDMFKTNLEEFASKHKQEIRKNPEFRVQFQDMCATIGVDPLASGKGFWSEMLGVGDFYYELGVQIIEVCLALKHRNGGLITLEELHQQVLKGRGKFAQDVSQDDLIRAIKKLKALGTGFGIIPVGGTYLIQSVPAELNMDHTVVLQLAEKNGYVTVSEIKASLKWETERARQVLEHLLKEGLAWLDLQAPGEAHYWLPALFTDLYSQEITAEEAREALP | soluble |
| MSLDAVRAVLIDIDGVLTVSWKPLPGAIEALHRIRDASLGVVLLTNTTSRTRASIAATLGASGFPVSAEDILTAPTATAAHLTDHCPGARCSLLNSGDIREDLVGVTLLDDTDTVPDVVIVGGAGPEFDYAALNRVFGHLQRGARLVAMHRNLYWRTDRGLDLDSGAFLLGLEHAAGTRAEITGKPAPAFFEAALTRLGAGPGQAVMVGDDIESDVLAAQRTGITGVLVKTGKYLPETHHAASARPDHVLDSVADLPALLDSVVREGHHHHHH | soluble |
| MAGYGAKGIRKVGAFRSGLEDKVSKQLESKGIKFEYEEWKVPYVIPASNHTYTPDFLLPNGIFVETAGLWESDDRKKHLLIREQHPELDIRIVFSSSRTKLYKGSPTSYGEFCEKHGIKFADKLIPAEWIKEPKKEVPFDRLKRKGGKK | soluble |
| MKPICIIPARSGSKGLPDKNMLFLSGKPMIFHTIDAAIESGMFDKKDIFVSTDSELYREICLERGISVVMRKPELSTDQATSYDMLKDFLSDYEDNQEFVLLQVTSPLRKSWHIKEAMEYYSSHDVDNVVSFSEVEKHPSLFTTLSDEGYAIDMVGADKGYRRQDLQPLYYPNGAIFISNKETYLREKSFFTSRTYAYQMAKEFSLDVDTRDDFIHVIGHLFFDYAIREKENKVFYKEGYSRLFNREASKIILGDSKTISTSLESYHNYSQGGVTLATMLENLPNFLTANVTEAFVSIGVNDLITGYSVEEIFSNFQKLYSLLAENKIKMRLTTIAYTLFRETVNNADIEKINQWLTEFCYQNQIPLLDINRFLSKDGNLNYHLTSDGLHFTQEANDLLQSQYQLFVDEVKTLLEHHHHHH | soluble |
| DVGRVLWLAEDITQRKRRREKQALIERVFEVSPVGIVVVERSGRISLANDRAEELLGLEREKITRRRYDQPEWNIYYKDGTEIPDSEHPVTQVLESGEPVFGFEHWIELEDGSERWLSSNAAPILGDDGTVERVVVGLDD | not soluble |
| RSLTMTLEELMNAPAPASRWVLERDCAETGLDPADIRAEMLRRIGEMRSSVERGLQSDARSITGMVGWNAKGLWDAPDVLGAPLLKRVQAYAMAVNEENARMGRIVAAPTAGSAGTIPGALLGVADHLGLSDEQLVDPMILAAGVGKAISKRMFISGAAGGCQAE | not soluble |
| MAKARRRRVRDTWKEKKWYVIKSPKLFGENEIGTTPSRDPDFLLKRRVEATMRELTGDFSKQYVKLKFQIDSVAGSEATTRFIGHQVTTDYVRSMIRRGTSRVDAPVIVETKDGYKLKVHPLAITIRRAKSSQQKYMRQSIEEHLREIASEKTFEELVEGIVTGKIASEIYHQAKKIYPLKRVEIIKSRVLEEPALEHHHHHH | soluble |
| GPGSMTDALAKPIRVCVLACSYEGSDSELRAYEGDLIQTPQNYFCSEDAQCTFHLELIKKATAYRQIRQLVMSGKFDVFYNQCDGAKDEDRAGVEVVEALEEFKVPYTGAISKYYEMSKPDMKLVAYYYNIATANYIVLAPGDDIESLCGDLQFPCIIKHISGYSSVGMDKSCKVYDMAHLVDRAARFMAEYQFALVEEFVNGDEATILACSDSTQPEGVRVFPPVQVAFPEGEDFKHFQLKWASYEGMKWTQVPQEDPAMQNMIDIARSAFKRMMGGVGYGRIDVRIDRQKNHKVVFLEINPNCGIMYPYGQEGSADWILRLNRGFQQREFAMLQIREAITRCQRERLLYVRRFDPVRGYHLRAAEDISVGTIIFQDECRPVRLCTKPYALQHFSKADYVDFQHNAWPVGRDGHYYALWDHDPAQWRAFNHSCEPNMSFAPMRSLDVVALRNIPKGEELTMDYRQFMDSTMPGFQCNCGTEKCEGFVSPGSLVDSPTAKIASQPTVALRHNIAVRLNPI | soluble |
| MKKVTKSIKREGSPSDEEYTLEEDPIEFELEKMERGSSNGESEEESQRDQKQADSIIDDMVEQNDQEQEAAGEQDVERENDLRKMYELSLLPPAAIAAQIQQMEKEIYELSQWEARELIRSKHLRIFGNCRRRANKLEHHHHHHH | not soluble |
| YETQSREKQTRQQHEHMLMIVSNLYEETVHLKKTLKTTEKVTNDSYQLYREMKGKDVQLSGRILRLAGEIHEVKKDNQRIFAGLSKLISNESLRDYMRASDLLQLVIRMNEKYAEALGKQIDFYCSIEGEHDEYHVFIVLSIINNLTANAVEAMDEEGMVSLRLRKPNESMVEFQVEDNGPGISEKIGDIVFDPGFTSKYDEFGTPSTGIGLSYVKEIVTELEGDITFDNQQRGVVFAIRLPVRHLIQKG | not soluble |
| MTILFARNIEKGFGDRTLFTLPSLEIQAQDRIGIVGVNGAGKSTLLQILSKEIEADKGIVTHHSSISIIPQISEELPKVASSTAKGKWNISNISNSMSGGERMRLKIAHALEQDAGILFADEPTSHLDMFGTEQLEKALLSYKGALVLISHDREFLDNICTKIIEIEDGIIQEYKGNYSNYRKQKERERTQKQAEYEQYINEKERLEKSILQKKQRASSMTKIPTRFSSSESKLYKLSGANGQEQVSKAAKALETRLEKLEKKEKPKELSQAQFDVQYHTPIHSKVAVQFNKATKKIGDLTLFKNMNGTIAPGAKLAILGANGSGKTTLFNMLLANERGIQLSKSCKIGYFEQTLSILKTDKTILENVLEETNYTESFVRTILARLLFRREDVHKPVHVLSGGERMKVALAKVFLGNYNMLLLDEPTNYLDLATQEELESMLQEYPGTILFISHDRAFIRSVADHILQVDESEPRVFHGNYEQYTNRTADASVNVTAQELLRLQTKLTEIIGRISIPNHHDDITSLEQEYETLLVKIRKCKEAL | not soluble |
| MTQELGPLARTLSMPYYDDALPAHDQFHAKRVRDIALRLAGDCNGSVDRDVLAASAWLHDIGRPRERAGEIDDHDDWATAEAAQLLAAEGVKPDRIGRIKHCIQAHSIRTSSPEPRTLEAKLLFDADKLDAAGARGLVRLACIVGERSGRTGEKYAVIDDTSATDLGTSNSPDIELLRDWAQERLDTLYTQPGRRLGQTRREFMDEFFTHFAGEIGASGEWLEHHHHHH | not soluble |
| AHHHHHHASAKWVCKICGYIYDEDAGDPDNGISPGTKFEELPDDWVCPICGAPKSEFEKLEDGSIEIRTHTALHVLKGAVVKVLGEGAKWTASVYVNGNHGRLTVKFNRKPTHEEIREIERLANEKIKENVPIQIYELSREEAEKIFGDEMYDLFPVPEHVRTLKVVVIEDWNVNACNKEHTKTTGEIGEIKIRKVRFRKSKELLEISFDVL | soluble |
